Experimental findings from patent US20240189443A1, “PD-L1 AND TLR7 DOUBLE-TARGETING NANOBODY COUPLING DRUG AND USE THEREOF IN ANTI-TUMOR” (SHANGHAI INSTITUTE OF MATERIA MEDICA, CHINESE ACADEMY OF …, priority 2021, published 2024) are described below.

Where a chain is given by its changes, count along the chain named. “And” between values parts separate entries of the source, which are not always exact repeats. Identical values can stand only once.

The test system of assay [1] is induced high-expression PD-L1 CT26 tumor cell. The assay is described as follows: Combined anti-tumor effect of Nb16 and SZU-101, IFN-γ-induced CT26 subcutaneous tumor model. The format is in vivo, BALB/c mouse. The note with it: Nb16 10 mg/kg intraperitoneal, SZU-101 3 mg/kg peritumoral. As for the experimental part:
The mouse CT26 tumor cells were recovered and passaged, it was ensured that tumor cells at least have been subjected to 3 generations during tumor-bearing, and mouse IFN-γ with a final concentration of 100 ng/mL was used to induce tumor cells for 24 h before tumor-bearing, so that the cell surface thereof highly expresses PD-L1; the induced high-expression PD-L1 CT26 tumor cell was inoculated subcutaneously into a female BALB/c mouse, wherein the inoculation amount was 1×10^6 cells/one; and randomly grouping mice into four groups (9 per group), i.e., a same-type control group (mFc), a nano-antibody Nb16 group (Nb16), a TLR7 agonist SZU-101 group (SZU-101) and a combined treatment group (NB16/SZU-101), wherein the administration amount of the mFc and the Nb16 was 10 mg/kg, and intraperitoneal administration was performed; and the administration amount of the SZU-101 was 3 mg/kg, and the tumor was administered circumferentially. The administration cycle were Nb16 administered on D1, D5, D9, D12, and D14 and SZU-101 administered on D9-D14 (3A). The body weight of the mouse and the tumor major diameter (L) and the short diameter (W) in the administration cycle were observed and recorded until the anatomical endpoint, and the tumor volume V=(L×W×W)/2 was calculated, a tumor growth curve was drawed, and the tumor inhibition rate was calculated; and the experiment was terminated on the fifteenth day. After performing euthanasia, the animal was dissected, and the subcutaneous tumor was taken out.

The next assay deals with PD-1/PD-L1 (Mus musculus, UniProt Q9EP73). The assay is described as follows: In vitro activity of candidate nanobodies NB9, NB10, NB11, NB17 (blocking or non-blocking type). The class given is binding.
For the next assay, the target named is T1, HEK293T/hPD-L1 (Homo sapiens, UniProt Q9NZQ7).
T1 construct: expressed in transfected cells; host or cells: HEK293T
The assay is described as follows: Human PD-L1 binding activity assay of candidate anti-human PD-L1 nanobodies (flow cytometry). The note with it: nanobody 10 μg/mL. As for the experimental part: The cell strain HEK293T/hPD-L1 was digested, and centrifugationwas performed to remove the supernatant; the cells were washed one time with PBS and the cell density was adjusted to 2.5×10^6 cells/mL; each cell sample was added to a 100 μL cell suspension, that is, a 2.5×10^5 cell/sample was comprised; different anti-human PD-L1 candidate nanobodies (the concentration is 10 μg/mL) were respectively added to the samples; incubating for 20 min at 4° C.; centrifuging, removing supernatant, and the cells were washing once with PBS; using diluted antibody anti-human IgG Fc (FITC) as secondary antibody, and the cells were re-suspended; incubating at 4° C. for 20 min; centrifuging, removing supernatant, the cells were washing twice with PBS, and transferred to a flow tube; and was performed on-machine detection by using a flow cytometer to obtain the binding activity of the candidate nanobody and human PD-L1, as shown in FIG. 13.
(A flow cytometer gives signals particle by particle.)

Assay [2] concerns the target T2, mPD-L1-Fc fusion protein (mouse; human, UniProt Q9EP73 19-239).
T2 construct: extracellular domain; also called Mouse PD-L1 (ECD)-pFUSE-hIgG1-Fc; not shown: Fc of human IgG1 from vector pFUSE-hIgG1-Fc
The assay is described as follows: ELISA, coated mPD-L1-Fc, anti-mouse HRP detection. As for the experimental part: Coating the plate with mPD-L1-Fc fusion protein at 4° C. overnight, then the plate was sealed with BSA at 37° C. for 2 hours, Nb 16 nanobodies of different concentrations were added in each hole, reacted at room temperature for 1 hour, and the plate were washed and goat anti-mouse horseradish peroxidase labeled antibody was added, and reacting at room temperature for 1 hour. After washing, a color developing solution was added, and an absorption value was read at a wavelength of 450 nm.
In general terms: An ELISA detects its analyte on a solid surface through an enzyme-linked reagent.

Assay [3] has as its target T2, mPD-L1-Fc fusion protein. The assay is described as follows: competition ELISA, coated mPD-L1-Fc, 10 µg/mL mouse PD-1-Fc-Biotin, SA-HRP detection. Here is the method:
Coating the plate with mPD-L1-Fc fusion protein at 4° C. overnight, then the plate was sealed with BSA at 37° C. for 2 hours, Nb16 nanobodies of different concentrations and 10 μg/mL mouse PD-1-Fc-Biotin fusion protein were added in each hole., After reacting at room temperature for 1 hour, the plate was washed and antibody SA-HRP was added, and the plate reacted at room temperature for 1 hour. After washing, a color developing solution was added, and an absorption value was read at a wavelength of 450 nm.

Assay [4] concerns the target T3, mouse PD-L1 on cell strain HEK293T/mPD-L1 (mouse, UniProt Q9EP73 19-290).
T3 construct: whole, on cells
The assay can be described thus: flow cytometry on HEK293T/mPD-L1, anti-mouse IgG Fc (PE).

In assay [5] the target is T4, human PD-1/PD-L1 (HEK293T/hPD-L1) (Homo sapiens, UniProt Q9NZQ7).
T4 construct: expressed in transfected cells; host or cells: HEK293T
The assay can be described thus: Human PD-1/PD-L1 blocking activity assay of candidate anti-human PD-L1 nanobodies (flow cytometry). The class given is binding. The note with it: nanobody 10 μg/mL, human PD-1-his 1 μg/mL. Here is the method:
The cell strain HEK293T/hPD-L1 was digested, and centrifugationwas performed to remove the supernatant; the cells were washed one time with PBS and the cell density was adjusted to 2.5×10^6 cells/mL; each cell sample was added to a 100 μL cell suspension, that is, a 2.5×10^5 cell/sample was comprised; and the human PD-1-his protein (the concentration was 1 μg/mL) and the anti-human PD-L1 candidate nanobody (the concentration was 10 μg/mL) were respectively added to the sample; the cells were incubated for 20 min at 4° C.; centrifuging, supernatant was removed, and the cells were washed once with PBS; using diluted antibody anti-his-APC as secondary antibody, and the cells were re-suspended; incubated at 4° C. for 20 min; centrifuging, supernatant was removed, the cells were washedtwice with PBS, and was transferred to a flow tube; and was performed on-machine detection by using a flow cytometer to obtain the PD-1/PD-L1 blocking activity of the candidate nanobody, as shown in FIG. 14.

T1 sequence (Q9NZQ7 19-290): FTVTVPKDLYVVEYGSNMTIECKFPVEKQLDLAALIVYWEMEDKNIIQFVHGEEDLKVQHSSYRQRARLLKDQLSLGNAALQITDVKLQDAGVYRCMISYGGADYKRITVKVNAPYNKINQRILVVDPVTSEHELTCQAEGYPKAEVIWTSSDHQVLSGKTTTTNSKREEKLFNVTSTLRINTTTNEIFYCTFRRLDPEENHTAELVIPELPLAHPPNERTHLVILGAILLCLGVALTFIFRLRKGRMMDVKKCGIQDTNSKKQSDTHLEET
Sequence of PD-1/PD-L1 (Q9EP73 19-239): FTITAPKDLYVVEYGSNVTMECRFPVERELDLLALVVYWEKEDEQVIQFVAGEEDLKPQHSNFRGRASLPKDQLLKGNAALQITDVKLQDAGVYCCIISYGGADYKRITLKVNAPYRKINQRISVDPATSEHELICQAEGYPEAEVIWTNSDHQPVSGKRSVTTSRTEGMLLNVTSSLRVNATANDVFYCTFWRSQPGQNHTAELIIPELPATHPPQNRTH
T4 sequence (Q9NZQ7 19-290): as the sequence (Q9NZQ7 19-290) above
T2 sequence (Q9EP73 19-239 limits assumed): as the sequence (Q9EP73 19-239) above
T3 sequence (Q9EP73 19-290): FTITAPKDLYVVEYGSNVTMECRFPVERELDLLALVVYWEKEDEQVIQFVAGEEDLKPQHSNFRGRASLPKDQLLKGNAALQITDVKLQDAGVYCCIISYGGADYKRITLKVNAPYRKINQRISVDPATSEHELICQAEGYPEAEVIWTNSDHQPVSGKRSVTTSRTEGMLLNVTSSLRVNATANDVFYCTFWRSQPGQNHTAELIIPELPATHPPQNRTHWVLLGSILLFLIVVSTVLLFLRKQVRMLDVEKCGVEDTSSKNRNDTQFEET

For the molecule `COCCOc1nc(N)c2nc(O)n(Cc3ccc(CNC(=O)CCC(=O)O)cc3)c2n1` [SZU-101], the “Anti-tumor effect” value in assay [1] is recorded as “significantly inhibit tumor growth”. The Tumor inhibitory rate in assay [1] (day 15) is 49%. The “Endpoint tumor Weight” value in assay [1] (individual mice, day 15) is 0.298 g and 0.560 g and 0.330 g and 0.278 g and 0.354 g and 0.516 g and 0.286 g and 0.328 g and 0.426 g.

B1: Nb11: anti-PD-L1 nanobody, VHH SEQ ID NO: 13 (protein)
VHH: QVQLQESGGGSVQAEGSLRLSCSAPIYVTYYGTYCMGWFRQAPGKEREGVAGISGDGRTSYADSVKGRFTVSKDNAKNTLYLEMNSLKPEDTAMYYCALRIGGYCDTLNGADFRYWGQGTQVTVSS
modifications: Nb11 Amino acid sequence of VHH
With B1, the “Blocking type or non-blocking type nanobody” value with PD-1/PD-L1 is reported as “non-blocking”.

B2: h_Nb12: anti-human PD-L1 nanobody, VHH SEQ ID NO: 44 (protein)
VHH: DVQLQESGGGLVQAGGSLRLSCAASGRTFSSRAMGWFRQAPGKEREFVAAISGSGRNTYYADSVKGRFTISRDNAKNSVNLQMNSLKPEDTAVYYCNAAGGGITIATMTQRTQYDYWGQGTQVTVSS
modifications: h_Nb12 Amino acid sequence of VHH
On to B2, for which the “Binding activity with human PD-L1” value in the assay with HEK293T/hPD-L1 was “good binding activity”.

B3: h_Nb13: anti-human PD-L1 nanobody, VHH SEQ ID NO: 48 (protein)
VHH: DVQLQESGGGLVQPGGSLRLSCAASGSIFSINAMGWYRQAPGKSRELVAAITSGGSTNYADSVKGRFTISRDTAKNTVYLLMNSLEPEDTAVYYCNVERRRPPHYLSEYDFDWGQGTQVTVSS
modifications: h_Nb13 Amino acid sequence of VHH
Consider B3, for which the “Binding activity with human PD-L1” value in the assay with HEK293T/hPD-L1 is “good binding activity”.

B4: h_Nb26: anti-human PD-L1 nanobody, VHH SEQ ID NO: 56 (protein)
VHH: B3 VHH with S25P, S30R, S44Q, K64Q, T73N, L81Q, E86K, L106Y, E108D
modifications: h_Nb26 Amino acid sequence of VHH
Consider B4, for which the “Binding activity with human PD-L1” value with HEK293T/hPD-L1 was “good binding activity”.

B5: Nb9: anti-PD-L1 nanobody, VHH SEQ ID NO: 5 (protein)
VHH: QVQLQESGGGLVHPGGSLRLSCAASGFTFSSYTMRWVRQAPGKGLEWVSGINNVGGSTLYADSVKGRFTISRDNAKNTLYLQMNSLQPDDTAMYYCATGIIGSGLETATYRGQGTQVTVSS
modifications: Nb9 Amino acid sequence of VHH
On to B5, for which the “Blocking type or non-blocking type nanobody” value with PD-1/PD-L1 is “blocking type”.

B6: nanobody Nb16 (Fc fusion)
chain: QVQLQESGGGSVQAGGSLRLSCAASGYTDRNYWMGWFRQAPGKEREGVAALYTRTGSTYYADSVKGRFTISHDNAKNTLYLQMNSLKPEDTAVYYCAADSNAYGLAPLHHYWGQGTQVTVSS
notes: also called bare anti-Nb16; original PD-L1 nanobody; not shown: Fc of mouse IgG2b from vector pFUSE-mIgG2b-Fc
B6: the EC50 (as a rule, the concentration that produces a half-maximal response) with mPD-L1-Fc fusion protein [2] was 0.045 µg/mL. For the same molecule, the IC50 (usually the midpoint of a concentration-inhibition curve) with mPD-L1-Fc fusion protein [3] turned out to be 1.02 µg/mL.

B7: PD-L1 and TLR7 double-targeting nanobody coupling drug Nb16-SZU-101 (Fc fusion)
chain: B6 chain
modifications: TLR7 agonist SZU-101 coupled through SZU-101-NHS active ester to amino groups, sites not given; coupling degree 4.5
notes: not shown: Fc of mouse IgG2b from vector pFUSE-mIgG2b-Fc
On to B7, for which the binding result in assay [4] was “binds”.

B8: h_Nb2: anti-human PD-L1 nanobody, VHH SEQ ID NO: 25 (protein)
VHH: DVQLQESGGGLVQPGGSLRLSCAASGFTFGDRWMYWLRQAPGKGLEWVSSINPAGRSTYYADSVKGRFTISRDNAKNTLYLQMNSLKSEDTAVYYCTKDPGGYQKGQGTQVTVSS
modifications: h_Nb2 Amino acid sequence of VHH
B8: the “Binding activity with human PD-L1” value with HEK293T/hPD-L1 is reported as “good binding activity”. The “Blocking of human PD-1/PD-L1 binding” value in assay [5] was “effectively block”.

B9: h_Nb6: anti-human PD-L1 nanobody, VHH SEQ ID NO: 37 (protein)
VHH: DVQLQESGGGLAQPGGSLRLSCAASGFTFSSYAMSWARQAPGKGLEWVAGIYRGGSDTYYADSVKGRFTISRDNTKNTLYLQMNSLKPEDTALYYCIQGWGLGYANYDYWGQGTQVTVSS
modifications: h_Nb6 Amino acid sequence of VHH
As to B9, in the assay with HEK293T/hPD-L1, the “Binding activity with human PD-L1” value is listed as “good binding activity”.

B10: h_Nb1: anti-human PD-L1 nanobody, VHH SEQ ID NO: 21 (protein)
VHH: DVQLQESGGGLVQPGGSLRLSCAASGFTFSSYAMSWVRQAPGKGLEWVSDINSGGDNTDYADSVKGRFTISRDNAKNTLYLQMNSLKPEDTAVYYCARGPKLCFSSWGQGTQVTVSS
modifications: h_Nb1 Amino acid sequence of VHH
Take B10: the “Binding activity with human PD-L1” value with HEK293T/hPD-L1 is reported as “good binding activity”. Also, in assay [5], the “Blocking of human PD-1/PD-L1 binding” value is reported as “effectively block”.

B11: Nb17: anti-PD-L1 nanobody, VHH SEQ ID NO: 17 (protein)
VHH: QVQLQESGGGSVQAGGSLRLSCAASGYSARRRMGWFRQAPGKEREGVASIYTAGGRTWYADSVKGRFTISQDNAKNTVYLQMNSLKPDDTAMYYCAASPAPYGAESLSEADFAYWGQGTQVTVSS
modifications: Nb17 Amino acid sequence of VHH
With B11, the “Blocking type or non-blocking type nanobody” value with PD-1/PD-L1 is recorded as “non-blocking”.

B12: Nb10: anti-PD-L1 nanobody, VHH SEQ ID NO: 9 (protein)
VHH: QVQLQESGGGSVQAGGSLRLSCAASGYRFCRLAMRWYRQAPGKEREFVSFIDSGGTTSYADSVKGRFTISRDSAKNTVYLQMNSLKPEDTGMYYCNSDILGGGGGCPVSSYWGQGTQVTVSS
modifications: Nb10 Amino acid sequence of VHH
As to B12, the “Blocking type or non-blocking type nanobody” value in the assay with PD-1/PD-L1 is “blocking type”.

B13: h_Nb9: anti-human PD-L1 nanobody, VHH SEQ ID NO: 40 (protein)
VHH: DVQLQESGGGLVQPGGSLRLSCASSGSIFGLGVKGWYRQPPGNQREMVAQIISGGRISYADSVKGRFTISRDNAKNTVYLQMNSLKPEDTAVYYCNAWGPGQRNYWGRGTQVTVSS
modifications: h_Nb9 Amino acid sequence of VHH
For B13, the “Binding activity with human PD-L1” value with HEK293T/hPD-L1 is “good binding activity”.
